Experimental findings from patent US12448429B2, “T cell receptors specific to b-cell maturation antigen for treatment of cancer” (Dana-Farber Cancer Institute, Inc., priority 2019, dated 2025) are described below.

Test [1] addresses T1, HLA-A2 (Homo sapiens, UniProt P04439, D140Y/D185E/D98H/E176V/E277Q/G131W/G231S/I119V/I121R/I166T/I218V/L300P/L318F/N151K/N90K/P208A/P217A/Q86G/Q94H/R138H/R169H/T345S).
T1 construct: endogenous in cells; host or cells: T2 cell line (human B and T cell hybrid), provided by Dr. J. Molldrem
The experiment in a line: HLA-A2 binding affinity of BCMA peptides on T2 cells (HLA-A2 up-regulation, MFI by flow cytometry). Particulars: for HLA-A2 binding affinity among the six native peptides: dose-dependent, Example 12; for HLA-A2 specificity (HLA-A2 binding capacity, MFI): six native BCMA peptides compared, T2 cells pulsed overnight with 0-200 μg/ml peptide, FIG. 2; for change of HLA-A2 binding affinity of heteroclitic peptide compared to its native peptide: T2 cells, FIG. 3, Example 12: n=3, p<0.05. On the procedure:
The listed BCMA peptides were evaluated for HLA-A2-specific binding capacity using the T2 cell line. In the assay, T2 cells were washed, resuspended in serum-free AIM-V medium to a final concentration of 1×10^6 cells/ml and transferred into wells of a 24-well tissue culture plate. The cells were pulsed with different concentrations of respective BCMA peptide (0-200 μg/ml) plus 3 μg/ml human […] (Sigma) and incubated at 37° C., 5% CO2 in humidified air. Following overnight incubation, the cells were washed, stained with mouse anti-human HLA-A2-FITC mAb for 15 minutes at 4° C., washed and analyzed using a FACSort™ flow cytometer with CellQuest™ v2.1 software (Becton Dickinson, San Jose, Calif.). […] Among the BCMA peptides evaluated, “#4. […] (FIG. 2).
(§1) The native and heteroclitic BCMA peptides were examined for HLA-A2 binding stability using the T2 cell line. T2 cells were pulsed with the respective peptide. After overnight incubation, the cells were washed to remove unbound peptide; they were evaluated for binding affinity as shown above and stability as following. The cells were incubated with 10 μg/ml Brefeldin A (Sigma) at 37° C. and 5% CO2 for 1 hour to block cell surface expression of newly synthesized HLA-A2 molecules. Peptide/HLA-A2 binding stability was evaluated at 0, 2, 4, 6 and 18 hours post-Brefeldin A treatment. Following the incubation period, the cells were harvested, washed, stained with mouse anti-human HLA-A2-FITC mAb and analyzed by flow cytometry. […] Therefore, the Heteroclitic #4 BCMA72-80 (YLMFLLRKI (SEQ ID NO: 37)) peptide was selected for further evaluation of its immunogenic potential to generate MM-specific cytotoxic T cells (CTLs).
(§2) T2 cells were pulsed overnight with various doses of peptide plus β2-microglobulin (3 μg/ml) (Sigma, St Louis, Mo.). Following overnight incubation, the cells were stained with HLA-A2-PE mAb and analyzed using a FACSCanto™ flow cytometer (BD). Peptide/HLA-A2 complex stability was measured on peptide loaded T2 cells at 0, 2, 4, 6 and 14 hours post-brefeldin A treatment by staining with HLA-A2-PE mAb and flow cytometric analysis.

Test [2] deals with T1, HLA-A2. The experiment in a line: Peptide/HLA-A2 binding stability on peptide-pulsed T2 cells after Brefeldin A treatment. Particulars: for HLA-A2 stability (and affinity) of heteroclitic peptides: 0, 2, 4, 6 and 14 hours post-brefeldin A, compared with native peptides and HIV-Gag77-85 positive control. On the procedure:
as §1, §2

The mark [3] stands for this setting: listed as heteroclitic BCMA72-80.

Regarding AILWTCLGL [#5. BCMA54-62], in the test with HLA-A2 [1], the “HLA-A2 binding affinity among the six native peptides” value was “highest HLA-A2 binding affinity” and the “HLA-A2 specificity (HLA-A2 binding capacity, MFI)” value was “second highest level”.

Regarding VLMFLLRKI [#4. BCMA72-80], in the test with HLA-A2 [1], the “HLA-A2 binding affinity among the six native peptides” value was “highest HLA-A2 binding affinity” and the “HLA-A2 specificity (HLA-A2 binding capacity, MFI)” value is “highest level of HLA-A2 specificity”.

Turning to YILWTCLGL [Heteroclitic #5 BCMA54-62], in the test with HLA-A2 [2], the “HLA-A2 stability (and affinity) of heteroclitic peptides” value is “further enhanced”. For the same sequence, the “change of HLA-A2 binding affinity of heteroclitic peptide compared to its native peptide” value (“change” below) in the test with HLA-A2 [1] is reported as “increased from their native peptide”; with HLA-A2 [1] (listed as heteroclitic hBCMA54-62), “highest increase in HLA-A2 binding affinity”.

Regarding YLMFLLRKI [Heteroclitic #4 BCMA72-80], the “HLA-A2 stability (and affinity) of heteroclitic peptides” value was “highest level of HLA-A2 affinity and stability” in the test with HLA-A2 [2] (listed as BCMA72-80 (YLMFLLRKI (SEQ ID NO: 37))); “further enhanced” with HLA-A2 [2] (setting [3]). The “HLA-A2 binding stability compared to the native peptide” value with HLA-A2 [2] (0, 2, 4, 6 and 18 hours post-Brefeldin A, 50 ug/ml, FIG. 4) was “significant improvement”. Further, the “change” value was “increased from their native peptide” in the test with HLA-A2 [1] and “highest increase in HLA-A2 binding affinity” with HLA-A2 [1] (setting [3]).

In the case of YQNEYFDSL [heteroclite BCMA9-17], the “change” value in the test with HLA-A2 [1] is “did not alter its HLA-A2 affinity status”.
